Source: US20080220446A1, “Method for Detecting and/or Removing Protein and/or Peptide Comprising a Cross-Beta Structure From an Aqueous Solution Comprising a Protein” (priority 2005, published 2008)

Tests used:
[1] = Stability testing of biopharmaceuticals under denaturing conditions; assay type: physicochemical; settings: after exposure to harsh denaturing conditions (low pH or heat)
Procedure: For this purpose, 5 mg/mL Glucagon (Glucagen; Novo Nordisk Farma B. V., Alphen aan de Rijn, The Netherlands) was incubated at 37° C. in 0.01 M HCl for 48 hours. One mg/mL Etanercept (Enbrel; Wyeth Pharmaceuticals B. V., Hoofddorp, The Netherlands) in 67 mM sodium phosphate buffer, 100 mM NaCl pH 7.0 was gradually heated from 30° C. to 85° C. over a period of 12 minutes and afterwards cooled to 4° C. for 5 minutes, this treatment was repeated 4 times. Abciximab (Reopro; Centocor B. V., Leiden, The Netherlands) and Infliximab (Remicade; Schering-Plough B. V., Utrecht, The Netherlands) were incubated at 65° C. for 16 and 72 hours, respectively.

sRAGE = biological target: T1, sRAGE (Homo sapiens, UniProt Q15109); test: Biacore surface plasmon resonance, binding to immobilized sRAGE; settings: Hb-AGE 32, albumin-AGE 3.9, amyloid γ-globulins 62.5 μg ml^−1
T1 construct: comprises three domains spanning amino-acid residues 23-325; His-tag (N); thrombin cleavage site (N); made in house; host or cells: 293E cells (printed as 'hamster embryonic kidney cells')
T1 sequence (Q15109 23-325): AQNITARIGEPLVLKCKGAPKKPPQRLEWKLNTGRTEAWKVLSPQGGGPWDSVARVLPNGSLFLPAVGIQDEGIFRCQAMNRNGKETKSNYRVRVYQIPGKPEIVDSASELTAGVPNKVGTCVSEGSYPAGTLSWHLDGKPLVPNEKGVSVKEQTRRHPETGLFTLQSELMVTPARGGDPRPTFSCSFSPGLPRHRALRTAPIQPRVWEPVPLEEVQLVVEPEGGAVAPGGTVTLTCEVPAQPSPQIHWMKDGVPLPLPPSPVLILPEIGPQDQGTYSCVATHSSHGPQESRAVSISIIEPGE
Procedure: (§1) Binding of cross-β structure containing peptides/proteins was studied using surface plasmon resonance technology with a Biacore 2000 apparatus (Biacore AB, Uppsala, Sweden). A standardized amine coupling procedure was used to couple proteins with F domains to a CM5 chip (Biacore AB, Uppsala, Sweden). First, the dextran surface of the chips was activated by a 35 μl injection with a 1:1 mixture of 0.1 M N-hydroxysuccinimide (NHS) and 0.4 M N-ethyl-N′-(dimethylaminopropyl)carbodiimide (EDC) at a flow rate of 5 μl min.^−1. Then, the proteins were covalently coupled to the activated dextran surface. Remaining activated groups in each of the four flow channels were blocked by injection of 35 μl of 1 M ethanolamine hydrochloride pH 8.5. EDC, NHS and ethanolamine hydrochloride were obtained from Biacore. On one chip, on channels 1 to 4, buffer (reference channel), the soluble extracellular part of receptor for advanced glycation endproducts (sRAGE), tPA and K2P-tPA were immobilized. […] Binding of albumin-AGE was determined with a solution of 3.9 μg ml^−1 albumin-AGE in running buffer. albumin-AGE was filtered on a Millex-GV 0.22 μm filter unit (Millipore). […] Binding of Hb-AGE was also tested after centrifugation for 10 min. at 16,000*g alternative to filtration. tPA activation before and after filtration was assessed with a Plg-activation assay. […]

tPA = tPA (Homo sapiens, UniProt P00750); test: Biacore surface plasmon resonance, binding to immobilized tPA; settings: Hb-AGE 32, albumin-AGE 3.9, amyloid γ-globulins 62.5 μg ml^−1
Chain of tPA (P00750 36-562): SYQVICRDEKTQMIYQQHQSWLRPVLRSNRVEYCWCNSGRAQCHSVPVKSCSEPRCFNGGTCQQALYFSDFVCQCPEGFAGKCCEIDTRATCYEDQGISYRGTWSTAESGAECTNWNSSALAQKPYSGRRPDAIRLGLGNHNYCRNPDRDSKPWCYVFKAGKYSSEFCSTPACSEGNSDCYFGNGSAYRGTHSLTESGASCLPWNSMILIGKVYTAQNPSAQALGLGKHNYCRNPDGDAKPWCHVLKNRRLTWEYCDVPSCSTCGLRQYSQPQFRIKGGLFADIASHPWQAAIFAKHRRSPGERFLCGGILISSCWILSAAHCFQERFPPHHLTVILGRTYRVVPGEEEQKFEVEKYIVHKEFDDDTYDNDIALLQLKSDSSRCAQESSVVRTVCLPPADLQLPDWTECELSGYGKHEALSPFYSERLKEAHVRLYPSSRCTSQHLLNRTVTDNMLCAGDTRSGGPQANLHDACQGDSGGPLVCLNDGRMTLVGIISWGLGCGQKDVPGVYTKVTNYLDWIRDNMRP
Procedure: as §1

platelets = test: Platelet aggregation assay with BSA-AGE spiked plasma before and after depletion; assay type: cell-based, human; settings: 512-fold diluted plasma spiked with 250 μg/ml, tenfold diluted
Procedure: Results are compared to platelet activating properties of the spiked plasma before depletion of BSA-AGE.
Freshly drawn human aspirin free blood was mixed gently with citrate buffer to avoid coagulation. Blood was spinned for 15′ at 150*g at 20° C. and supernatant was collected; platelet rich plasma (PRP) with an adjusted final platelet number of 200,000 platelets/μl. Platelets were kept at 37° C. for at least 30′, before use in the assays, to ensure that they were in the resting state. For the aggregometric assays, 270 μl platelet solution was added to a glass tube and prewarmed to 37° C. A stirring magnet was added and rotation was set to 900 rpm, and the apparatus (Whole-blood aggregometer, Chrono-log, Havertown, Pa., USA) was blanked. […] Aggregation was followed in time by measuring the absorbance of the solution, that will decrease in time upon platelet aggregation. As a positive control synthetic thrombin receptor activating peptide TRAP was used. Aggregation was recorded for 15′ and expressed as the percentage of the transmitted light (0-100%).

| Substance | amyloid-like properties (ThT-fluorescence and tPA activation) [1] | binding to immobilized sRAGE (sRAGE) | binding to immobilized tPA (tPA) | platelet aggregation (platelets) |
| --- | --- | --- | --- | --- |
| Abciximab: abciximab, an inhibitor of blood platelet aggregation (ReoPro, Centocor) | amyloid-like properties are adopted |  |  |  |
| albumin-AGE: advanced glycation end-product modified bovine serum albumin |  | bind | bind | Platelets readily aggregate |
